Reference: patent US20150191709, “MODIFIED HELICASES” (OXFORD NANOPORE TECHNOLOGIES LIMITED, published 2015)

T1: Hel308 Mbu(E284C/S615C)-bismaleimidePEG11 (Methanococcoides burtonii, UniProt Q12WZ6 SEQ:1-760, E284C/S615C)
T1 sequence: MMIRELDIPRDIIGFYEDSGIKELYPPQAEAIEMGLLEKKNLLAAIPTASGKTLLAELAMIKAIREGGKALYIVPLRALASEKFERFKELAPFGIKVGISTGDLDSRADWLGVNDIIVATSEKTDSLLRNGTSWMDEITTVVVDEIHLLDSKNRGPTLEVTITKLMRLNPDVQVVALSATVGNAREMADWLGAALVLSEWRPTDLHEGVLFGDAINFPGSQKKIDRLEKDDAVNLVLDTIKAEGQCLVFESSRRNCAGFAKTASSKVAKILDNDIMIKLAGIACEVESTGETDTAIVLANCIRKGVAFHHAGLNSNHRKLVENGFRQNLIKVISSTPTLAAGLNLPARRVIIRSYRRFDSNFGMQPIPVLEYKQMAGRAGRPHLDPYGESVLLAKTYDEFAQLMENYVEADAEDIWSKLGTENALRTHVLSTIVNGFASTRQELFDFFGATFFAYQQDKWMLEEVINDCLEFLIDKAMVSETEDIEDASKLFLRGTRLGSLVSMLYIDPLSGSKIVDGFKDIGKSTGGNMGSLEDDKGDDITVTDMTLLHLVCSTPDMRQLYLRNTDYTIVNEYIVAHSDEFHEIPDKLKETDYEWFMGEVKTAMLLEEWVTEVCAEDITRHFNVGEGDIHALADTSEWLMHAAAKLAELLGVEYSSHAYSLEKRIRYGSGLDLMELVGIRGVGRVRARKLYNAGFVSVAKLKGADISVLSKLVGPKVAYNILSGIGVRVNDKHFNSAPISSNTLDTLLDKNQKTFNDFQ

T2: Hel308 Mbu(E284C/S615C)-bismaleimidePEG3 (Methanococcoides burtonii, UniProt Q12WZ6 SEQ:1-760, E284C/S615C)
T2 sequence: T1 sequence

B1: 80 bp blocker processivity substrate (dsDNA)
DNA 1: TCGCTGCTCCACAGGTCTCAGCTTGAGCAGCGAAAATAAGAACATTATGATCAGTAGGAGCACTACGACCTTTGTTCTGGTGCTCGTCCGGGCGCCCAAAGTGGAGCGAGTGCCCCC
DNA 2: GCACTCGCTCCACTTTGGGCGCCCGGACGAGCACCAGAACAAAGGTCGTAGTGCTCCTACTGATCATAATGTTCTTATTT
DNA 3: TCGCTGCTCAAGCTGAGACCTGTGGAGCAGCGA

Assays:
[1] = target: Hel308 Mbu-E284Faz E284Faz (Methanococcoides burtonii) (UniProt Q12WZ6); conditions: four nitroindoles between SEQ 155 and SEQ 154; nanopore; 100 nM, 960 mM KCl, 10 mM MgCl2, 1 mM ATP
[2] = target: Heat treated Hel308 Mbu-E284Faz E284Faz (Methanococcoides burtonii) (UniProt Q12WZ6); conditions: four nitroindoles between SEQ 155 and SEQ 154; nanopore; 500 nM, 960 mM KCl, 10 mM MgCl2, 1 mM ATP
[3] = target: T1, Hel308 …; test: fluorescence unwinding; increased processivity; 400 mM NaCl, 1 mM ATP, 10 mM MgCl2; conditions: tags: C284 and C615 crosslinked by bismaleimidePEG11 (closed); 3' ssDNA overhang, 80 and 33 bp duplex sections
Description: (§1) The fluorescent probe is designed in such a way that its 5′ and 3′ ends are self-complementary and thus form a kinetically-stable hairpin once displaced, preventing the probe from re-annealing to the template strand (FIG. 3 section D). Upon formation of the hairpin product, the FAM is brought into the vicinity of the BHQ-1 and its fluorescence is quenched. A processive enzyme, capable of displacing the 80 mer “blocker” (SEQ ID NO: 111) and fluorescent (SEQ ID NO: 112, labelled with a carboxyfluorescein (FAM) at its 5′ end a black-hole quencher (BHQ-1) at its 3′ end) strands will therefore lead to a decrease in fluorescence over time. However, if the enzyme has a processivity of less than 80 nt it would be unable to displace the fluorescent strand (SEQ ID NO: 112, labelled with a carboxyfluorescein (FAM) at its 5′ end a black-hole quencher (BHQ-1) at its 3′ end) and, therefore, the “blocker” strand (SEQ ID NO: 111) would reanneal to the major bottom strand (FIG. 3 section E, SEQ ID NO: 110).

[4] = target: T2, Hel308 Mbu(E284C/S615C)-bismaleimidePEG3; test: as above; conditions: tags: C284 and C615 crosslinked by bismaleimidePEG3 (closed); 3' ssDNA overhang, 80 and 33 bp duplex sections
Description: as §1

| Molecule | activity (% movements reaching polyT) [1] | activity (% movements reaching polyT) [2] | binding result [3] | binding result [4] |
| --- | --- | --- | --- | --- |
| 3.6 kb DNA | 28 | 71 | – | – |
| B1 | – | – | binds | binds |
